Data: patent US20110046056A1, “APOA-1 PEPTIDE MIMETICS” (priority 2007, published 2011)
*1 amine or outer side, *2 acyl side, *3 side chain or, on linkers, in order; H or OH if unused. Bridges are numbered along the chain shown (N, C = ends). Where no end group is shown, it is not given here. Side-chain parts run from the residue outwards. [ ]: non-standard residue; d: D form. dStyrA = (R)-styryl-alanine, (D)-StyrA, O=C([C@@H](C/C=C/c1ccccc1)N[*:1])[*:2]; S6H = (2S)-2-aminooct-7-enoic acid, C=CCCCC[C@H](N[*:1])C(=O)[*:2]; S7H3 = (2S)-2-aminononanoic acid, CCCCCCC[C@H](N[*:1])C(=O)[*:2]; Leu(5,5,5,5',5',5'-F6) = N[C@@H](CC(C(F)(F)F)C(F)(F)F)C(=O)O; OXA12 = PEG spacer connecting glycine to cholesterol; Ala(E-styryl) = N[C@@H](C/C=C/c1ccccc1)C(=O)O; Gly(oct-7-en-1-yl) = C=CCCCCCC[C@H](N)C(=O)O; dGly(6-heptenyl) = C=CCCCCC[C@@H](N)C(=O)O; Ala(5-hexenyl) = C=CCCCCC[C@H](N)C(=O)O; Gla = N[C@@H](CC(C(=O)O)C(=O)O)C(=O)O; S8H3 = not defined here; MA = not defined here; Aib = CC(C)(N)C(=O)O

B1: CONS[E^4, Q^11, S8H3^13,] (peptide)
peptide: Ac-PVLEEFREKLQE[S8H3]LEALKQKLK
modifications: not fully specified (C-terminus); printed as PVLEEFREKLQES8H3LEALKQKLK; reading uncertain; also: calls X13 alkenyl side chain-substituted amino acid
B2: (CONS[S7H^6,13]-GC)2 (peptide)
peptide: Ac-PVLDE[Ala(5-hexenyl)]REKLNE[Ala(5-hexenyl)]LEALKQKLKGCPVLDE[Ala(5-hexenyl)]REKLNE[Ala(5-hexenyl)]LEALKQKLKGC
modifications: disulfide 24-48; also: homodimer of two 24-residue chains listed as one 48-residue chain, second N-terminal acetyl not placed

Biological target: ATP-binding cassette transporter A1 (ABCA1) (mouse, UniProt P41233 1-2261)
Sequence (P41233 whole entry): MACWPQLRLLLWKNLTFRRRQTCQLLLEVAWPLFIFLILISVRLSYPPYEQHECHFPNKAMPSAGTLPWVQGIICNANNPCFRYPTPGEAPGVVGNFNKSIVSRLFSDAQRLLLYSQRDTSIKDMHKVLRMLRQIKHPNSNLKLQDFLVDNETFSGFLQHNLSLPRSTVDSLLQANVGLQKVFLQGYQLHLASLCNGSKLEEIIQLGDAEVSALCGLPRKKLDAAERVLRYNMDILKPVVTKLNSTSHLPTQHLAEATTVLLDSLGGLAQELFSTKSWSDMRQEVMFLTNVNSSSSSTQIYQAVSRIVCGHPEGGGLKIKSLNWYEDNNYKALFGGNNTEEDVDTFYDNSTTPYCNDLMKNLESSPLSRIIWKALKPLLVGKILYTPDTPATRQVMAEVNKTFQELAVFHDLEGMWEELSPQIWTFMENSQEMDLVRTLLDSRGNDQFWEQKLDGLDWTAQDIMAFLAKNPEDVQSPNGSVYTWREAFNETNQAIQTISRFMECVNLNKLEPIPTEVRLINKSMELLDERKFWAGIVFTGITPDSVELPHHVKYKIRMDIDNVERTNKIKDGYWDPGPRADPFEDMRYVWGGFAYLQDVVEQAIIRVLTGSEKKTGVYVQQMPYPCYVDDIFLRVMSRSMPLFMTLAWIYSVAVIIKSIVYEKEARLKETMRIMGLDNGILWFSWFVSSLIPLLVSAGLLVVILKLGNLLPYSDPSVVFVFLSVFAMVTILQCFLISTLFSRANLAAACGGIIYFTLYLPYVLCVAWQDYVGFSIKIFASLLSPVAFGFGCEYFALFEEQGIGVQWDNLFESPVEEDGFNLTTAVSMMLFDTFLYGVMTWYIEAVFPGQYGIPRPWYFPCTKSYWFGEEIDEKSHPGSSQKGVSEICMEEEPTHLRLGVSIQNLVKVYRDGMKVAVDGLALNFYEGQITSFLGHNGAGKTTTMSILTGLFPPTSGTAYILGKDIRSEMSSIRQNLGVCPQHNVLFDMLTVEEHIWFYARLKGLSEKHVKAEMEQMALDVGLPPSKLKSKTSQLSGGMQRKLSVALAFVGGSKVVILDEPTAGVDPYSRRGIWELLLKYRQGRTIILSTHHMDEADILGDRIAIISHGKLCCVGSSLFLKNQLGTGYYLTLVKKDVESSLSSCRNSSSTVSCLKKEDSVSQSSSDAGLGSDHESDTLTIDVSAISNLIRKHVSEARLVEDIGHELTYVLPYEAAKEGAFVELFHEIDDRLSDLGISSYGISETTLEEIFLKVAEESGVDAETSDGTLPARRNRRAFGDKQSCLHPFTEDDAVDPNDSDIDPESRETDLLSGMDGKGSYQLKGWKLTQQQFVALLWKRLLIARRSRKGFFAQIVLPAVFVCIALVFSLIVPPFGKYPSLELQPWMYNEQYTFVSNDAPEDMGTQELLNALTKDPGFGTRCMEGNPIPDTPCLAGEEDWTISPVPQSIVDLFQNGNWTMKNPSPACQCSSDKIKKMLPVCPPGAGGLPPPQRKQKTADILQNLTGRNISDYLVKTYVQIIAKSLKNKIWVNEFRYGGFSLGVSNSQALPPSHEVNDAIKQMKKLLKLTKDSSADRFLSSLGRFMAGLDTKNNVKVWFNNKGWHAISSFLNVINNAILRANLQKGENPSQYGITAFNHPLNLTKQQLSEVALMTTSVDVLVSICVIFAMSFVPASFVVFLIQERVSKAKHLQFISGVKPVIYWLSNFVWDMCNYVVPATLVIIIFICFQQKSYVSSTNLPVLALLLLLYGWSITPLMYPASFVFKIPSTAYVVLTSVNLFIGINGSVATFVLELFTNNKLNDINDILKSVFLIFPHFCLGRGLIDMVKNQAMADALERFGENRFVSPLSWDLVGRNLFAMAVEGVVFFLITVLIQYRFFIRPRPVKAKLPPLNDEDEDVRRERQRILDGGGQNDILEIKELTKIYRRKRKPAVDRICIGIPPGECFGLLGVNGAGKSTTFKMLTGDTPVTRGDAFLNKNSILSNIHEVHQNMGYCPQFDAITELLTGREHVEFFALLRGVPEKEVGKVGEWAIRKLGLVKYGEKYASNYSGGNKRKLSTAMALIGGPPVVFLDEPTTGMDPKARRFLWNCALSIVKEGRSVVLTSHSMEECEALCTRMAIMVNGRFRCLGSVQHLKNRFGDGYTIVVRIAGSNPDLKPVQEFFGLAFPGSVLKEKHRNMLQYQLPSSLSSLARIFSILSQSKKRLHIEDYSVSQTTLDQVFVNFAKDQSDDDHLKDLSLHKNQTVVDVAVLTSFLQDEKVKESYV
Assay: cell-based or functional assay

Going from Ac-PVLDEFREKLNE[Ala(5-hexenyl)]LEALKQ[Ala(5-hexenyl)]LK [CONS[S7H^13,20]] to Ac-P[Ala(5-hexenyl)]LDE[Ala(5-hexenyl)]REKLNE[Ala(5-hexenyl)]L[Gla]ALKQ[Ala(5-hexenyl)]LK [CONS[S7H^2,6,13,20, GLA^15]], the “ABCA1-dependent cholesterol efflux EC50” value rises from 600 nM to 2400 nM (4-fold).

First: Ac-[dP][dV][dL][dD][dE][Ala(5-hexenyl)][dR][dE][dK][dL][dN][dE][Ala(5-hexenyl)][dL][dE][dA][dL][dK][dQ][dK][dL][dK] (not fully specified (C-terminus)) [D-CONS[S7H^6,13]]
Second: Ac-PVLDE[Gly(oct-7-en-1-yl)]REKLNE[Gly(oct-7-en-1-yl)]LEALKQKLK [CONS[S8H^6,13]]
The “ABCA1-dependent cholesterol efflux EC50” value of the first is 7.5-fold higher: 3000 nM for the first, 400 nM for the second.

Compared with PXLDEXREKLNEXLXALKQKLK (not fully specified; N-terminal acetyl (Ac-Pro); S7H at 2, 6 and 13; Gla at 15) [CONS[GLA^15, S7H^2,6,13]], Ac-P[Ala(5-hexenyl)]LDE[Ala(5-hexenyl)]REKLNE[Ala(5-hexenyl)]LEALKQ[Ala(5-hexenyl)]LK [CONS[S7H^2,6,13,20]] is 3.3-fold higher in “ABCA1-dependent cholesterol efflux EC50” value: 600 nM for the first, 2000 nM for the second.

Compared with Ac-PVLDEFREKLNE[Ala(E-styryl)]LEALKQKLK (not fully specified (C-terminus)) [CONS[(S)STYRA^13]], Ac-PVLDEFREKLNE[dStyrA]LEALKQKLK (not fully specified (C-terminus)) [CONS[(R)STYRA^13]] is 22-fold higher in “ABCA1-dependent cholesterol efflux EC50” value: 1000 nM for the first, 22000 nM for the second.

Going from Ac-[dP][dV][dL][dD][dE][S6H][dR][dE][dK][dL][dN][dE][dGly(6-heptenyl)][dL][dE][dA][dL][dK][dQ][dK][dL][dK] (not fully specified (C-terminus)) [D-CONS[S6H^6, R7H^13]] to Ac-PVLDE[S8H3]REKLNE[S8H3]LEALKQKLK (reading uncertain) [CONS[S8H3^6,13]], the “ABCA1-dependent cholesterol efflux EC50” value falls from 1200 nM to 600 nM (2-fold).

Ac-PVLEE[Ala(5-hexenyl)]REKLQE[Ala(5-hexenyl)]LEALKQKLK (not fully specified (C-terminus)) [CONS[E^4, S7H^6,13, Q^11]] and Ac-PVLDEFR[Gla]KLNE[Ala(5-hexenyl)]LEALKQKLK (not fully specified (C-terminus)) [CONS[GLA^8, S7H^13]] are within 1.5-fold of each other in “ABCA1-dependent cholesterol efflux EC50” value: 700 nM for the first, 900 nM for the second.

Compared with PXLDEFREKLNEXLXALKQXLK (not fully specified; N-terminal acetyl (Ac-Pro); S7H at 2, 13 and 20; Gla at 15) [CONS[GLA^15, S7H^2,13,20]], Ac-PVLDEFREKLNE[Ala(5-hexenyl)]L[Gla]ALKQKLK [CONS[S7H^13, GLA^15]] is 11-fold lower in “ABCA1-dependent cholesterol efflux EC50” value: 7700 nM for the first, 700 nM for the second.

B1 and Ac-PVLDE[Ala(E-styryl)]REKLNE[Ala(5-hexenyl)]LEALKQKLK [CON[(S)STYRA^6, S7H^13]] are the same in “ABCA1-dependent cholesterol efflux EC50” value: 200 nM for the first, 200 nM for the second.

Going from PVLDEXREKLNEXLXALKQXLK (not fully specified; N-terminal acetyl (Ac-Pro); S7H at 6, 13 and 20; Gla at 15) [CONS[GLA^15, S7H^6,13,20]] to Ac-PVLDEFREKLNE[S8H3]LEALKQKLK (reading uncertain) [CONS[S8H3^13]], the “ABCA1-dependent cholesterol efflux EC50” value falls from 500 nM to 300 nM (1.7-fold).

Going from Ac-PVLDE[Ala(5-hexenyl)]REKLNE[Ala(5-hexenyl)]LEALKQ[Ala(5-hexenyl)]LK [CONS[S7H^6,13,20]] to Ac-P[Ala(5-hexenyl)]LDEFREKLNE[Ala(5-hexenyl)]LEALKQ[Ala(5-hexenyl)]LK [CONS[S7H^2,13,20]], the “ABCA1-dependent cholesterol efflux EC50” value rises from 200 nM to 3200 nM (16-fold).

Going from Ac-PVLDEFREKLNE[Aib]L[Gla]ALKQKLK (not fully specified (C-terminus)) [GLA15/AIB13] to Ac-PVLEEFREKLQE[Gly(oct-7-en-1-yl)]LEALKQKLK (not fully specified (C-terminus)) [CONS[E^4, Q^11, S8H^13]], the “ABCA1-dependent cholesterol efflux EC50” value falls from 41000 nM to 300 nM (140-fold).

First: Ac-P[Ala(5-hexenyl)]LDEFREKLNE[Ala(5-hexenyl)]LEALKQKLK [CONS[S7H^2,13]]
Second: B2
The “ABCA1-dependent cholesterol efflux EC50” value of the first is 5-fold lower: 300 nM for the first, 1500 nM for the second.

First: Ac-P[Ala(5-hexenyl)]LDE[Ala(5-hexenyl)]REKLNE[Ala(5-hexenyl)]LEALKQKLK [CONS[S7H^2,6,13]]
Second: Ac-P[Ala(5-hexenyl)]LDE[dGly(6-heptenyl)]REKLNE[Ala(5-hexenyl)]LEALKQKLK (not fully specified (C-terminus)) [CONS[R7H^6, S7H^2,13]]
The “ABCA1-dependent cholesterol efflux EC50” value of the first is 2-fold lower: 100 nM for the first, 200 nM for the second.

First: Ac-PVLDEFREKLNE[S7H3]LEALKQKLK (not fully specified (C-terminus); printed as PVLDEFREKLNES7H3LEALKQKLK) [CONS[S7H3^13]]
Second: Ac-PVLDE[Ala(5-hexenyl)]REKLNE[Ala(5-hexenyl)]LEALKQKLK [CONS[S7H^6,13]]
The “ABCA1-dependent cholesterol efflux EC50” value of the first is 2-fold higher: 600 nM for the first, 300 nM for the second.

Compared with Ac-PVLDE[dGly(6-heptenyl)]REKLNE[Ala(5-hexenyl)]LEALKQ[Ala(5-hexenyl)]LK (not fully specified (C-terminus); printed as PVLDER7HREKLNES7HLEALKQS7HLK) [CONS[R7H^6, S7H^13,20]], Ac-PVLDEFREKLNE[Ala(5-hexenyl)]LEALKQKLKPVLDEFREKLNE[Ala(5-hexenyl)]LEALKQKLK [CONS[S7H^13]2] is 410-fold higher in “ABCA1-dependent cholesterol efflux EC50” value: 100 nM for the first, 41000 nM for the second.

First: Ac-PVLDE[S7H3]REKLNE[S7H3]LEALKQKLK (not fully specified (C-terminus); printed as PVLDES7H3REKLNES7H3LEALKQKLK) [CONS[S7H3^6,13]]
Second: Ac-PVLDEFREKLNE[Leu(5,5,5,5',5',5'-F6)]LEALKQKLK (not fully specified (C-terminus)) [CONS[HF-LEU^,13]]
The “ABCA1-dependent cholesterol efflux EC50” value of the first is 3.7-fold lower: 300 nM for the first, 1100 nM for the second.

In the case of Ac-PVLDEFREKLNEAL[Gla]ALKQKLK (not fully specified (C-terminus)) [GLA15/ALA13], the “ABCA1-dependent cholesterol efflux EC50” value is reported as 234000 nM.

Going from Ac-PVLDE[Ala(5-hexenyl)]REKLNE[Ala(5-hexenyl)]LEALKQKLKGC(branched mPEG 40 kDa) [CONS[S7H^6,13]-GC-PEG40] to Ac-[dP][dV][dL][dD][dE][dGly(6-heptenyl)][dR][dE][dK][dL][dN][dE][dGly(6-heptenyl)][dL][dE][dA][dL][dK][dQ][dK][dL][dK] [D-CONS[R7H^6,13]], the “ABCA1-dependent cholesterol efflux, % at 100 uM” value rises from 1% to 17.7%.

First: Ac-[dP][dV][dL][dD][dE][dGly(6-heptenyl)][dR][dE][dK][dL][dN][dE][dE][dL][dE][dA][dL][dK][dQ][dK][dL][dK] (not fully specified (C-terminus)) [D-CONS[R7H^6]]
Second: Ac-PVLDEFREKLNE[Aib]LEALKQKLK (not fully specified (C-terminus)) [AIB13]
The “ABCA1-dependent cholesterol efflux, % at 100 uM” value of the first is higher: 19% for the first, 6% for the second.

Ac-PVLDE[Ala(5-hexenyl)]REKLNE[Ala(5-hexenyl)]LEALKQKLKGC([MA-OXA12-Gly-cholesterol]) (not fully specified; reading uncertain) [CONS[S7H^6,13]-GC-OXA12-CHOLESTEROL] was tested, and the “ABCA1-dependent cholesterol efflux, % at 30 uM” value was 1.9%.
